B1: 100392_A6VH8_100393_A6VK5 (antibody, V domains shown)
VH: EVQLQESGAELVRPGASVTLSCKASGYTFTDYEIHWVKQTPVHGLEWIGAIDPETGGTAYNQKFKGKAILTADKSSSTAYMELRSLTSEDSAVYYCTSEKFGSSYYFDYWGQGTTFTVSS
VL: DIVMTQSTLSLPVSLGDQVSISCRSSQSIVHSDGNTYLEWYLQKPGQSPNLLIYKVSNRFSGVPDRFSGSGSGTDFTLKISRVEAEDLGVYYCFQGSHVPLTFGAGTKLELK
notes: Mouse variable regions; cloned into pFUSE-CHIg-mG1 (murine IgG1 Fc), expressed in HEK293
B2: 100392_C4VH5_100393_C4VK8 (antibody, V domains shown)
VH: EVQLQESGPELVKPGASVKIPCKASGYTFTDYNMDWVKKSHGKSLEWIGDIDPNNGGTIYNQKFKGKATLTVDKSSRTAYMELRSLTSEDTAVYYCARWRSSMDYWGQGTSVTVSS
VL: DIVITQSPSSLSASLGDRVTISCSASQGISNYLNWYQQKPDGTVKLLIYYTSSLHSGVPSRFSGSGSGTDYSLTISNLEPEDIATYYCQQYSELPWTFGGGTKLEIK
notes: as for B1
B3: 100388_C1VH2_100389_C1VK1 (antibody, V domains shown)
VH: B2 VH with K39Q, T58I, T69A, R77S
VL: B2 VL with I4M, G28D, N31S
notes: Mouse variable regions; cloned into pFUSE-CHIg-mG1 (murine IgG1 Fc), expressed in HEK293; also called 388C12A
B4: 100394_G1VH1_100395_G1VK4 (antibody, V domains shown)
VH: B2 VH with K39Q, S40N, G57D
VL: B2 VL with I4M, K39R, E93N
notes: as for B1
B5: 100392_C5VH6_100393_C5VK7 (antibody, V domains shown)
VH: B2 VH with K39Q, N55S, T58S, A79V
VL: B2 VL with I4M, N31H, S76R
notes: Mouse variable regions; cloned into pFUSE-CHIg-mG1 (murine IgG1 Fc), expressed in HEK293; also called 392C5A
B6: 100394_D5VH9_100395_D5VK7 (antibody, V domains shown)
VH: B2 VH with K23R, T28I, K39Q, G66D, A68T
VL: B2 VL with I4M, S7T, L11M, E93Y
notes: as for B1
B7: 100392_H4VH9_100393_H4VK6 (antibody, V domains shown)
VH: B2 VH with M34V, K39Q, I59F, R77S, Y80H, A97V
VL: B2 VL with I4M, S53N, N77D, E79A, E93Y
notes: as for B1
B8: 100392_C5VH6_100393_C5VK10 (antibody, V domains shown)
VH: B2 VH with K39Q, N55S, T58S, A79V
VL: B2 VL with I4M, P8T, N31H, S76R
notes: Mouse variable regions; cloned into pFUSE-CHIg-mG1 (murine IgG1 Fc), expressed in HEK293; also called 392C5B
B9: 100388_C1VH6_100389_C1VK1 (antibody, V domains shown)
VH: B2 VH with K39Q, T58I, T69A, R77S, A97T
VL: B2 VL with I4M, G28D, N31S
notes: Mouse variable regions; cloned into pFUSE-CHIg-mG1 (murine IgG1 Fc), expressed in HEK293; also called 388C16A
B10: 100388_C1VH6_100389_C1VK2 (antibody, V domains shown)
VH: B2 VH with K39Q, T58I, T69A, R77S, A97T
VL: B2 VL with I4L, S7T, E93K
notes: Mouse variable regions; cloned into pFUSE-CHIg-mG1 (murine IgG1 Fc), expressed in HEK293; also called 388C16B
B11: 100392_D2VH7_100393_D2VK6 (antibody, V domains shown)
VH: B2 VH with K39Q, N55T, G57T, I59F, K63D, R77S, V112L
VL: B2 VL with I4M, S7T, N31Y, V44I, S52L
notes: as for B1
B12: 100388_C1VH2_100389_C1VK2 (antibody, V domains shown)
VH: B2 VH with K39Q, T58I, T69A, R77S
VL: B2 VL with I4L, S7T, E93K
notes: Mouse variable regions; cloned into pFUSE-CHIg-mG1 (murine IgG1 Fc), expressed in HEK293; also called 388C12B
B13: 100411_C2VH3_100412_C2VK7 (antibody, V domains shown)
VH: EVQLQESGPGLVKPSQSLSLTCTVTGYSITSDYAWNWIRQFPGNKLEWMGYITYSGSPTYNPSLKSQFSITRDTSKNQFFLQLNSVTTEDTATYYCARGLGGHYFDYWGQGTTLTVSS
VL: DIVLTQTTATLSVTPGDRVSLSCRASQSISDYLHWYQQKSHESPRLLIKYASQSISGIPSRFSGSGSGSDFTLTVNSVEPEDVGVYYCQNGHSYPYTFGGGTKLEIK
notes: as for B1
B14: 100244_C7VH10_100245_C8VK5 (antibody, V domains shown)
VH: EVQLQESGPELVRPGASVKMSCKASGYTFTSYWMHWVKQRPGQGLEWIGMIDPSNSETSLNQKFKDKATLNVDKSSKTAYMQLSSLTSEDSAVYYCARSRGNYAYDMDYWGQGTSVTVSS
VL: DIVITQTTAIMSASPGEKVTLTCSASSSVSSNYLYWYQQRPGSSPKLWIYSTSNLASGVPARFSGSGSGTSYSLTISSMEAEDAASYFCHQWSSYPPTFGSGTKLEIK
notes: as for B1
B15: 100258_F6VH4_100259_F6VK1 (antibody, V domains shown)
VH: B14 VH with D52E, N55S, K77N, D106E
VL: B14 VL with I4M, I10T, S30N, R40K, L47V, I107L
notes: as for B1
B16: 100246_F7VH3_100247_F7VK2 (antibody, V domains shown)
VH: B14 VH with S54Y, N55S, S75I, K77N, Y95F
VL: B14 VL with I4L, T7S, S28G, S30N, R40K, M79V
notes: as for B1
B17: 100258_F6VH4_100259_F6VK1m1 (antibody, V domains shown)
VH: B14 VH with D52E, N55S, K77N, D106E
VL: B14 VL with I4M, T8P, I10T, S30N, R40K, L47V, I107L
notes: Mouse variable regions; cloned into pFUSE-CHIg-mG1 (murine IgG1 Fc), expressed in HEK293; also called 258F6m
B18: 100244_C7VH10_100245_C8VK5m1 (antibody, V domains shown)
VH: B14 VH
VL: B14 VL with I4L, T8P
notes: Mouse variable regions; cloned into pFUSE-CHIg-mG1 (murine IgG1 Fc), expressed in HEK293; also called 244C7m1
B19: 100258_C1VH4_100259_C1VK1 (antibody, V domains shown)
VH: EVQLQESGAELVMPGASVKMSCKASGYTFTDYWMHWVKQRPGQGLEWIGAIDTSDSYTSYHQNFKGKATLTEDESSSTAYMQLSSLTSEDSAIYYCARRDYGGFGYWGQGTTLTVSS
VL: DIVITQSPLSLPVGLGDQASISCRSSQSLVHSNGNTYLHWYLQKPGQSPKLLIYKVSNRFSGVPDRFSGSGSGTDFTLKISRVEAEDLGVYFCSQSTHVPYTFGGGTKLEIK
notes: as for B1
B20: 100413_H1VH3_100414_H1VK6 (antibody, V domains shown)
VH: EVQLQESGPSLVQPSQSLSITCTVSGFSLTNYGVHWVRQSPGKGLEWLGVIWRGGNTDYNAAFMSRLSITKDNSKSQVFFKFHSLQTDDTAIYYCAASMIGGYWGQGTTLTVSS
VL: B1 VL with M4L, T8P, V19A, N50K, V90I
notes: as for B1
B21: 100394_F1VH8_100395_F1VK4 (antibody, V domains shown)
VH: B2 VH with K39Q, K63N, R77S
VL: B2 VL with I4L, E93K
notes: as for B1
B22: 100392_B4VH10_100393_B4VK10 (antibody, V domains shown)
VH: B2 VH with K13R, K38M, K39Q, R77S, A97T
VL: B2 VL with I4M, S53N, N77D, E79A, E93Y
notes: as for B1
B23: 100388_H4VH1_100389_H4VK4 (antibody, V domains shown)
VH: EVQLQESGPGLVAPSQSLSITCTVSGFSLTNYGVDWVRQSPGKGLEWLGVIWGVGSTNYNSALKSRLSISKDNSKSQVFLKMNSLQTDDTAMYYCASDGFVYWGQGTLVTVSS
VL: DIVLTQDELSNPVTSGESVSISCRSSKSLLYKDGKTYLNWFLQRPGQSPQVLIYFMSTRASGVSDRFSGSGSGTDFTLEISRVKAEDVGVYYCQQLVDFPFTFGSGTKLELK
notes: as for B1
B24: 100392_C3VH7_100393_C3VK10 (antibody, V domains shown)
VH: B23 VH with N31S, V54I, T87S
VL: B23 VL with L4M, S10Y, L111I
notes: as for B1

Numbering of substitutions follows the chain as printed.

T1 sequence (Q15116 25-288): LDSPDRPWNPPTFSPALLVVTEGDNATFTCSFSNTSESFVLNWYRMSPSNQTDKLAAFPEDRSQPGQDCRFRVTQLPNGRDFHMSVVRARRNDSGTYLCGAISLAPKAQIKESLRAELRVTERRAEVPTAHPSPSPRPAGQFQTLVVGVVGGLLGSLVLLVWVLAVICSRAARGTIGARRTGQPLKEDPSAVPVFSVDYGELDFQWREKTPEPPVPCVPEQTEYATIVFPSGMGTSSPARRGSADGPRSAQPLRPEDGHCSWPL
T2 sequence (Q15116 25-167 limits assumed): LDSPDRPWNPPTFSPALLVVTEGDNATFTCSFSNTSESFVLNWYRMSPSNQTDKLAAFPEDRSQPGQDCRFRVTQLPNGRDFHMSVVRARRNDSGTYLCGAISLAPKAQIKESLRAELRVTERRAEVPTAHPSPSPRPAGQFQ

The first experiment has as its target T1, human Programmed Death-1 (PD-1) expressed on the cell surface (human, UniProt Q15116 25-288).
T1 construct: whole, on cells; also called CD279; Human PD-1 Expressed on HEK293 Surface
In words: cell binding, HEK293 cells expressing human PD-1, fluorescent anti-mouse secondary. The procedure:
Recombinant antibodies from cultured supernatants were also used in cell-based binding studies. HEK293 cells were transfected (Qiagen, SuperFect) with expression plasmids encoding the Ig heavy and light chains of anti-PD-1 antibodies. After 3-5 days, recombinant antibodies in the supernatants of transfected cells were harvested. Stable HEK293 cells expressing human PD-1 or primary cells were used for the cell-based binding confirmation studies. Antibodies from cultured supernatants were assessed for binding to cell surface PD-1 using fluorescently labeled anti-mouse IgG (polyclonal) antibody (Jackson Immunoresearch).
In both studies, commercially available mouse anti-PD-1 antibody and isotype control mouse IgG1 […] were used as controls. […] Strong binding is denoted as “+++”, medium binding is denoted as “++”, and weak binding is denoted as “+”.
Consider B1, for which the binding result was “binds”.

With B2, the binding result is recorded as “binds”. Consider B3, for which the binding result is “binds”. Still for that read-out and setting: for B4 the value was “binds”; for B5, “binds”; for B6, “binds”. On the same count and under the same terms, the entry for B7 is “binds”; for B8 it is “binds”. As to B9, the binding result is “binds”.

Take B10: the binding result is given as “binds”. For the molecule B11, the binding result was “binds”. On to B12, for which the binding result is on record as “binds”.

In the case of B13, the binding result was “binds”.

As for B14, the binding result is listed as “binds”.

Take B15: the binding result was “binds”.

Consider B16, for which the binding result was “binds”. Take B17: the binding result is reported as “binds”. As to B18, the binding result is recorded as “binds”. Turning to B19, the binding result is “binds”.

The next experiment addresses T2, PD-1-HIS (human, UniProt Q15116).
T2 construct: soluble extracellular domain; May be the same protein as m2; also called PD-1-HIS(tag); PD-1-His Tag (Sino Biological #10377-H08H-50)
In words: ELISA, supernatant of transfected HEK293 cells on PD-1-HIS(tag), OD 450 nm, average of two experiments.
As to B20, the binding result is “binds”. As to B1, the binding result was “binds”. Same read-out and setting: the entry for B21 is “binds”. Consider B2, for which the binding result is listed as “binds”.

On to B3, for which the binding result is recorded as “binds”. With B4, the binding result was “binds”.

Take B5: the binding result is listed as “binds”.

Consider B6, for which the binding result was “binds”. Turning to B7, the binding result is “binds”. Consider B8, for which the binding result is recorded as “binds”. Turning to B22, the binding result is on record as “binds”. On the same count and under the same terms, for B9 the value was “binds”; for B10, “binds”.

For the molecule B11, the binding result was “binds”. The same measure, in the same setting: for B12 the value was “binds”. Still for that read-out and setting: for B23 the value was “binds”; for B24, “binds”.

Take B13: the binding result is given as “binds”. Same read-out and setting: for B14 the value was “binds”; for B15, “binds”. B16: the binding result was “binds”. Regarding B17, the binding result is “binds”. Regarding B18, the binding result is “binds”. For the molecule B19, the binding result was “binds”.
